# From patent US20240352438A1, “MEANS AND METHODS FOR DETOXIFYING OCHRATOXIN A” (DSM Austria GmbH, priority 2021, published 2024)
# Changes are numbered by the printed parent chain.
# B1: 316 (protein)
# chain: MTTRTRILTAFLSLLAANACAADAAPAAPETVVLRCARMFDGASGKLVDNPQLTIVGNKIVRIAQGDKAEVPAGAEVVDLGDATCLPGFIDAHVHLVVQDSDQYRPRAYKDWQRFPAEHALRGAYWARIELEAGFTSVRDVAERDWVALGLRNAIDAGKVPGPRMLVSNFPVGSTSGHCDMDSVPPNRLPLVGPLQGTCNGPEECRAAVRYQIKYGANVIKFCPSSGAITFSNPADAPQLSPDEMNAVIGESEAWGRYVAAHAQGDKAAKMAVAAGVRSIEHGTFIQDDTLRAMKAKNVCLVPTISGVCEAEAQIGCYPPVMAEKGRAGMASMRQTFREAVQIGVPIALGTDSALPANGSQAREFRYMVENGLTPAQALLAGTANAARCLGTFDRVGTLEAGKLADVVAVPGNPIADITVTERPLFVMKDGVVVRRDAVR
# modifications: exemplary polypeptide
# B2: 310 (protein)
# chain: MTTRTRILTAFLSLLAANACAADAAPAAPHTVVLRAARMFDGASGKLVDHPQLTIVGNKIVRIAQGDKAEVPAGAEVVDLGDATLLPGFIDAHVHLSGQSSDNWYGDFFDNMMRFPAEQALYGAYYARITLEAGFTSVRDVGSTDWVALGLRNAIDAGKVPGPRMLVSNYAVGSTGGHADQDPIPPHKLPLAGPLQGVCNGPEECRAAVRYQIKYGANVIKFMPSGGVLSLSDPVDAPELSQDEMNAVIGESHAWGRKVAAHAHGDKAAKMAVAAGVDSIEHGSFIEDDTLRAMKAKNVYLVPTISAAAHVEEKIGTFPPVIAEKGRAAAAHMRQTFRHAVQIGVPIALGTDAGVGAHGSNAREFRYMVENGLTPAQALLAGTANAARLLGTFDRVGTLEAGKLADVVAVPGNPIADITVTERPLFVMKDGVVVRRDAVR
# modifications: exemplary polypeptide
# B3: 108 (protein)
# chain: B2 chain with A308I, H310N, M333L
# modifications: exemplary polypeptide
# B4: 89 (protein)
# chain: B2 chain with A308I, V311I, M333L
# modifications: exemplary polypeptide
# B5: 315 (protein)
# chain: B2 chain with A308V
# modifications: exemplary polypeptide
# B6: 311 (protein)
# chain: B2 chain with A308V, A330L, M333L
# modifications: exemplary polypeptide
# B7: 113 (protein)
# chain: B2 chain with E287Q, A308I, M333L
# modifications: exemplary polypeptide
# B8: 85 (protein)
# chain: B2 chain with H264L, A308I, M333L
# modifications: exemplary polypeptide
# B9: 106 (protein)
# chain: B2 chain with H187N, A308I, M333L
# modifications: exemplary polypeptide
# B10: 111 (protein)
# chain: B2 chain with A308I, H332Q, M333L
# modifications: exemplary polypeptide
# B11: 312 (protein)
# chain: B2 chain with A308V, A330M, M333L
# modifications: exemplary polypeptide
# B12: 96 (protein)
# chain: B2 chain with A308I, M333L, V355I
# modifications: exemplary polypeptide
# B13: 107 (protein)
# chain: B2 chain with A308I, H310Q, M333L
# modifications: exemplary polypeptide
# B14: 88 (protein)
# chain: B2 chain with A308I, V311L, M333L
# modifications: exemplary polypeptide
# B15: 313 (protein)
# chain: B2 chain with A308V, A330V, M333L
# modifications: exemplary polypeptide
# B16: 87 (protein)
# chain: B2 chain with M333L
# modifications: exemplary polypeptide
# B17: 84 (protein)
# chain: B2 chain with H264N, A308I, M333L
# modifications: exemplary polypeptide
# B18: 95 (protein)
# chain: B2 chain with A308I, M333L, V355L
# modifications: exemplary polypeptide
# B19: 91 (protein)
# chain: B2 chain with A308I, F318L, M333L
# modifications: exemplary polypeptide
# B20: 105 (protein)
# chain: B2 chain with H187Q, A308I, M333L
# modifications: exemplary polypeptide
# B21: 103 (protein)
# chain: B2 chain with I184V, A308I, M333L
# modifications: exemplary polypeptide
# B22: 83 (protein)
# chain: B2 chain with L229I, A308I, M333L
# modifications: exemplary polypeptide
# Experiment: OTA detoxification activity assay (specific activity, fluorescence reduction ex/em 390/450 nm)
# Type: biochemical
# Conditions: pH 6.0; SEQ ID NO: 1 = 100%
# In short: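 Recombinant enzyme preparation with 200 ng/mL OTA in 100 mM sodium phosphate, at pH 6.0 and pH 7.5, 37° C. Degradation followed as the fall in fluorescence at ex/em 390/450 nm. Specific activity taken from the initial linear slope; one unit degrades 1 μmol OTA per min at a starting OTA of […].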
row,Molecule,"Specific OTA detoxification activities in % compared to the enzyme of SEQ ID NO: 1, pH 6.0 [%]"
1,B1,62
2,B2,78
3,B3,61
4,B4,43
5,B5,38
6,B6,89
7,B7,31
8,B8,5
9,B9,88
10,B10,8
11,B11,81
12,B12,42
13,B13,54
14,B14,66
15,B15,84
16,B16,65
17,B17,3
18,B18,108
19,B19,49
20,B20,81
21,B21,101
22,B22,63

# Same assay, conditions: pH 7.5; SEQ ID NO: 1 = 100%
row,Molecule,"Specific OTA detoxification activities in % compared to the enzyme of SEQ ID NO: 1, pH 7.5 [%]"
1,B1,61
2,B2,91
3,B3,96
4,B4,107
5,B5,56
6,B6,48
7,B7,95
8,B8,3
9,B9,126
10,B10,52
11,B11,64
12,B12,33
13,B13,92
14,B14,91
15,B15,54
16,B16,166
17,B17,5
18,B18,178
19,B19,73
20,B20,120
21,B21,124
22,B22,90

# Experiment: Enzymatic activity comparison: activity remaining after 65° C. for 10 min at pH 6.0, relative to SEQ ID NO: 1
# Type: physicochemical
# Conditions: not given
# Procedure: To compare the temperature behavior and thermostability of selected enzymes to one another, enzyme was incubated at 65° C. for 10 min at pH 6.0. The enzymatic activity remaining after incubation was compared to the remaining activity of the enzyme of SEQ ID NO: 1 after incubation, the latter being set to 100%, see Table 16.
row,Molecule,"Enzymatic activity remaining after incubation, compared to SEQ ID NO: 1 (set to 100%) [%]"
1,B1,25
2,B2,39
3,B3,27
4,B4,71
5,B5,29
6,B6,30
7,B7,62
8,B8,95
9,B9,27
10,B10,35
11,B11,17
12,B12,39
13,B13,21
14,B14,33
15,B15,20
16,B16,53
17,B17,58
18,B18,38
19,B19,16
20,B20,15
21,B21,36
22,B22,19
